Assay results from publication PMC8002387.

Target: QtEnc^FLAG (encapsulin shell protein from Quasibacillus thermotolerans with a C-terminal FLAG tag) (Quasibacillus thermotolerans)

## DD-mScarlet-I-QtSig (destabilized fluorescent cargo protein)
  mScarlet-I fluorescence (RFP channel) of HepG2 cells coexpressing QtEnc^FLAG and the degron-tagged cargo; share of fluorescent cells; cells with the cargo alone gave a weak background signal: 20 % of cells
